# ± gives the uncertainty stated by the source.
# Experiment: self-splicing fitness, log relative to wild type (ln ratio); higher = more splicing; Tetrahymena group I intron in knt gene, E. coli kanamycin selection, DiMSum; sequences stand for … in CUCUCU…GGAGGGAAAAGUUAUCAGGCAUGCACCUGGUAGCUAGUCUUUAAACCAAUAGAUUGCAUCGGUUUAAAAGGCAAGACCGUCAAAUUGCGGGAAAGGGGUCAACAGCCGUUCAGUACCAAGUCUCAGGGGAAACUUUGAGAUGGCCUUGCAAAGGGUAUGGUAAUAAGCUGACGGACAUGGUCCUAACCACGCAGCCAAGUCCUAAGUCAACAGAUCUUCUGUUGAUAUGGAUGCAGUUCACAGACUAAAUGUCGGUCGGGGAAGAUGUAUUCUUCUCAUAAGAUAUAGUCGGACCUCUCCUUAAUGGGAGCUAGCGGAUGAAGUGAUGCAACACUGGAGCCGCUGGGAACUAAUUUGUAUGCGAAAGUAUAUUGAUUAGUUUUGGAGUACUCGUGGUCG
# Method in brief: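 DiMSum derived fitness as the error-weighted combination of fold changes across replicates, kanamycin versus no kanamycin, normalised to wild type. E. coli BL21(DE3) held the library, which randomised all eight P1ex-region intron nucleotides within the knt kanamycin-resistance gene on pET-22b(+). Six replicate transformations grew overnight at 37°C or 30°C on LB agar with or without 25 μg/mL kanamycin, also containing 100 μg/mL carbenicillin, 50 μM IPTG and 0.2% rhamnose, and pooled colonies were amplicon-sequenced on an Illumina HiSeq 2500.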
Sequence,self-splicing fitness (ln) (30 °C),self-splicing fitness (ln) (37 °C)
GGGUAGCAAUAUUACGGUUU,-0.176 ± 0.068,0.138 ± 0.099
AUGUAGCAAUAUUACGUGAA,-2.3 ± 0.12,-1.22 ± 0.14
GUUGAGCAAUAUUACGUCUU,-1.53 ± 0.17,-1.72 ± 0.2
UAUAAGCAAUAUUACGUAGC,–,-2.05 ± 0.36
UUACAGCAAUAUUACGAAGG,-3.54 ± 0.31,-1.3 ± 0.23
CGUAAGCAAUAUUACGUGCG,-2.95 ± 0.17,-2.17 ± 0.16
UCCCAGCAAUAUUACGACGC,-2.81 ± 0.19,-0.519 ± 0.23
AUAGAGCAAUAUUACGCGGU,-4.29 ± 0.35,-1.64 ± 0.24
CUAAAGCAAUAUUACGUCAA,-4.32 ± 0.32,-2.08 ± 0.28
UCGGAGCAAUAUUACGAAGU,–,-0.529 ± 0.24
CUCCAGCAAUAUUACGUAAG,-0.512 ± 0.053,0.0902 ± 0.076
UAUCAGCAAUAUUACGCCGC,-1.58 ± 0.19,-2.02 ± 0.27
GGAAAGCAAUAUUACGAAUG,-3.53 ± 0.29,-0.816 ± 0.25
UUGGAGCAAUAUUACGGACC,–,-2.55 ± 0.33
ACCAAGCAAUAUUACGGGAC,-4.08 ± 0.14,-2.05 ± 0.12
UCUAAGCAAUAUUACGCUAG,-2.73 ± 0.16,-2.89 ± 0.26
CAUAAGCAAUAUUACGGAGU,-3.14 ± 0.15,-2.35 ± 0.2
UCUCAGCAAUAUUACGGGCA,-0.117 ± 0.073,0.575 ± 0.09
UCUUAGCAAUAUUACGCACG,-1.56 ± 0.29,-1.47 ± 0.34

Sequence,self-splicing fitness (ln) (30 °C),self-splicing fitness (ln) (37 °C)
UGGUAGCAAUAUUACGUGGU,-4.36 ± 0.28,-2.7 ± 0.36
GGGUAGCAAUAUUACGUUGU,-2.46 ± 0.19,-1.14 ± 0.17
GGUGAGCAAUAUUACGCUUU,-2.63 ± 0.4,-3.04 ± 0.47
UCGCAGCAAUAUUACGGUAA,-0.786 ± 0.061,-0.563 ± 0.071
GGAGAGCAAUAUUACGGGCG,-3.79 ± 0.29,-2.37 ± 0.26
CCUGAGCAAUAUUACGGGGU,-3.44 ± 0.24,-3.06 ± 0.27
CCUCAGCAAUAUUACGACAA,-1.92 ± 0.17,-2.31 ± 0.25
UACCAGCAAUAUUACGGCCC,-1.19 ± 0.14,-0.219 ± 0.26
UUGAAGCAAUAUUACGCGGA,-1.12 ± 0.12,-0.506 ± 0.14
GAUUAGCAAUAUUACGAACU,-0.696 ± 0.15,-0.559 ± 0.19
CGGUAGCAAUAUUACGCGCG,-2.49 ± 0.31,-1.87 ± 0.22
GUCCAGCAAUAUUACGGAAA,-0.248 ± 0.095,0.62 ± 0.12
UUACAGCAAUAUUACGGGAC,-4.47 ± 0.33,-2.07 ± 0.25
AGGAAGCAAUAUUACGCAGC,-3.55 ± 0.33,-1.47 ± 0.31
GUAGAGCAAUAUUACGACUA,-0.724 ± 0.071,0.693 ± 0.11
UGGAAGCAAUAUUACGAUCU,-0.0165 ± 0.12,-0.454 ± 0.15
UCAUAGCAAUAUUACGCGCG,-0.405 ± 0.3,-0.412 ± 0.21
GGGCAGCAAUAUUACGCUCG,-0.812 ± 0.11,-1.24 ± 0.14
GAACAGCAAUAUUACGAUUC,-1.65 ± 0.072,-1.21 ± 0.11

# Reference: the supplement of paper PMC7877785
